Patent publication US6566489 (GENERAL HOSPITAL, dated 2003)

Target: T1, GST alone (UniProt P08515 1-218 = GST)
T1 construct: Negative control
Assay: pull-down on GST beads, western blot with CS4E
Method: Fifteen µl of a 50% slurry of GST-S4BP bound to GST beads were incubated with 10 µg of soluble pMal-syndecan in 0.5 ml of lysis buffer that contained 1% BSA. After incubation for 30 minutes at room temperature with constant mixing, the reaction mixtures were placed on ice and washed 3× with lysis buffer followed by, 3 washes with lysis buffer containing 1 M NaCl. Protein bound to GST-S4BP beads was solubilized in SDS-PAGE buffer, electrophoresed, transferred to an Immobilon-P membrane and analyzed for bound syndecan-4 core protein using the avian specific syndecan-4 polyclonal antibody CS4E (Baciu et al. (1994) *J. Biol. Chem.* 269:696–703).

T1 sequence (P08515 whole entry): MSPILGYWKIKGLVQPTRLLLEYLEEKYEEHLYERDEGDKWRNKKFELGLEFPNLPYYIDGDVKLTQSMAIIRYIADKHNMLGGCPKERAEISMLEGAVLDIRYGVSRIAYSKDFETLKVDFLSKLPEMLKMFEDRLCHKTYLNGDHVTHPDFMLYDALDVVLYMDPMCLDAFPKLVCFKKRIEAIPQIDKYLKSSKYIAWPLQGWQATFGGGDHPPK

B1: pMal/syndecan-4 fusion protein, full length syndecan-4 core protein (S-4) (other, avian, UniProt P49416 20-197, looked up, not shown: large carriers)
chain: ESVRETETMDARWLDNVGSGDLPDDEDIGEFTPHLTSDEFDIDDTSGSGDYSDYDDAIYLTTVDTPAISDNYIPGDTERKMEGEKKNTMLDNEIIPDKASPVEANLSNKISMASTANSSIFERTEVLTALIAGGAVGLLFAVFLILLLVYRMKKKDEGSYDLGKKPIYKKAPTNEFYA
notes: Bacterially expressed, soluble, purified on a maltose column
binding result: no binding (tested: 10 µg of soluble pMal-syndecan in 0.5 ml)
